Measured values published in the nanobody polyreactivity screen of Harvey et al. (2022).

Assay: yeast display, Sf9 membrane polyspecificity reagent, FACS + sequencing; frameworks hold sequencing errors
How it was run: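 Nanobodies came from a synthetic yeast display library in Saccharomyces cerevisiae BJ5465, induced with galactose for 36–48 hours and stained for 1 hour at 4 °C with 10% biotinylated, detergent-solubilized Sf9 membrane reagent. Cells were enriched on streptavidin microbeads and then FACS-sorted, with low and high (top ~1%) gates set on anti-HA fluorescence for expression and streptavidin fluorescence for reagent binding. Each polyreactivity label reflects the gate a clone came from. Genes were amplified by colony PCR, sequenced by MiSeq 2 × 250 and filtered by CDR length.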

**Q.** For “QVQLVESGGGLVQAGGSLRLSCAASGSTFNWYAMGWYRQAPGKERELVAAISSGGNTNYADSVKGRFTISRDNAKNTVYLQMNSLKPEDTAVYYCAARYPYKHLAWSTSKRFGYWGQGTQVTVSS”, which “polyreactivity (PSR sort gate)” value is on record?
**A.** Its value is “low polyreactivity”.

**Q.** For “QVQLVESGGGLVQAGGSLRLSCAASGSTFNYYAMGGNRQAPGKESELVAAISTRGSSTSYADSVKGRFTISRDNAKNTVYLQMNSLKPEDTAVYYCTAPRWSPRRYGYWGQGTQVTVSS”, which “polyreactivity (PSR sort gate)” value is on record?
**A.** Its value is “high polyreactivity”.

**Q.** With “QVQLVESGGGLVQAGGSLRLSCAASGSTFPFNAMGWYRQAPGKERELVAAITTSAGSTYYADSVKGRFTISRDNAKKTVYLQMNSLKPEDTAVYYCAARYVPPWGRRYYYWGQGTQVTVSS” as the sequence, how does the “polyreactivity (PSR sort gate)” value read?
**A.** Its value is “high polyreactivity”.

**Q.** For “QVQLVESGGGLVQAGGSLRLSCAASGSTFPFNAMGWYRQAPGKERELVAVITYSGGSTYYADSVKGRFTISRDNAKNTVYLHMNSLKPVVTAVYYCAADVYYWGSTYYYWGLGTQVTVSS”, which “polyreactivity (PSR sort gate)” value is on record?
**A.** Its value is “high polyreactivity”.

**Q.** Which “polyreactivity (PSR sort gate)” value does the source give for “QVQLVESGGGLVQAGGSLRLSCAASGSTFPFYVMGWYRQAPGKERELVASIRGTGGNTYYADSVKGRFTISRDNAKNTVYLQMNSLKPEDTAVYYCNAVYRLSHYDLDYWGQGTQVTVSS” here?
**A.** Its value is “high polyreactivity”.

**Q.** With “QVQLVESGGGLVQAGGSLRLSCAASGSTFPGNAMGWYRQAPGKERELVAAINWSGDSTYYADSVKGRFTISRDNAKNTVYLQMNSLKPEDTAVYYCAAYGVGYYYWGQGTQVTVSS” as the sequence, how does the “polyreactivity (PSR sort gate)” value read?
**A.** Its value is “low polyreactivity”.

**Q.** With “QVQLVESGGGLVQAGGSLRLSCAASGSTFPGNAMGWYRQAPGKERELVAAITSTGTTYYADSVKGRFTISRDNAKNTVYLQMNSLKPEDTAVYYCNADPSPDPSTFDYWGQGTQVTVSS” as the sequence, how does the “polyreactivity (PSR sort gate)” value read?
**A.** Its value is “low polyreactivity”.

**Q.** With “QVQLVESGGGLVQAGGSLRLSCAASGSTFPGNAMGWYRQAPGKERELVASIRRSGGSTYYADSVKGRFTISRDNAKNTVYLQMNSLKPEDTAVYYCAKRTFLVSGPRSYGWYGVYYWGQGTQVTVSS” as the sequence, how does the “polyreactivity (PSR sort gate)” value read?
**A.** The value was “high polyreactivity”.

**Q.** With “QVQLVESGGGLVQAGGSLRLSCAASGSTFPGYAMGWYRQAPGKERELVAAITAGGGSTYYADSVKGRFTISRDNAKNSVYLLMKSLKPEDTAVYYCAKRYSYYGWRRYDYWGQGTQVTVSS” as the sequence, how does the “polyreactivity (PSR sort gate)” value read?
**A.** The value was “high polyreactivity”.

**Q.** With “QVQLVESGGGLVQAGGSLRLSCAASGSTFPGYAMGWYRQAPGKERELVAAITTSGGSTYYADSVKGRFTISRDNAKNTVYLQMNSLKPEDTAVYYCAADYWYYLDAGYYWGQGTQVTVSS” as the sequence, how does the “polyreactivity (PSR sort gate)” value read?
**A.** Its value is “low polyreactivity”.

**Q.** Which “polyreactivity (PSR sort gate)” value does the source give for “QVQLVESGGGLVQAGGSLRLSCAASGSTFPGYAMGWYRQAPGKERELVASIYTGGSTYYADSVKGRFTISRDNAKKTVYLQMHSLKPEDSAVYYCAADSYNVSSLMYYWGQGTQVTVSS” here?
**A.** Its value is “low polyreactivity”.

**Q.** Which “polyreactivity (PSR sort gate)” value does the source give for “QVQLVESGGGLVQAGGSLRLSCAASGSTFPINAMGWYRQAPGKERELVACISSGGSTDYADSVKGRFTISRVNAKNTVYLQMNSLKAEHTAVYYWAAVRGPSLVTKYPHDYWGQGTQVTVSS” here?
**A.** Its value is “low polyreactivity”.

**Q.** With “QVQLVESGGGLVQAGGSLRLSCAASGSTFPINTMGWYRQAPGKERELVAAITHSGGRTYYADSVKGRFTISRVNAKNTVYLQMNSLKPEDTAVYYCNAVRYYAVRVSDGDYDYWGQGTQVTVSS” as the sequence, how does the “polyreactivity (PSR sort gate)” value read?
**A.** Its value is “low polyreactivity”.

**Q.** With “QVQLVESGGGLVQAGGSLRLSCAASGSTFPKYAMGWYRQAPGKERELVAAISWYGGRTYYADSVKGRFTISRDNAKHTVYLQMNSLKPEDTAVYYCAASIPGTRSDGYWGQGTQVTVSS” as the sequence, how does the “polyreactivity (PSR sort gate)” value read?
**A.** Its value is “low polyreactivity”.

**Q.** For “QVQLVESGGGLVQAGGSLRLSCAASGSTFPKYAMGWYRQAPGKERELVALITSSTGTTYYADSVKGRFTISRDNAKNTVYLQMNSLKPEDTAVYYCNARVRYREWGLYYWGQGTQVTVSS”, which “polyreactivity (PSR sort gate)” value is on record?
**A.** The value was “high polyreactivity”.

**Q.** For “QVQLVESGGGLVQAGGSLRLSCAASGSTFPKYAMGWYRQAPGKERELVASISVTTGSTYYADSVKGRFTISRDNAKNTVYLQMNSLKPEDTAVYYCAARRGWGDDYWGQGTQVTVSS”, which “polyreactivity (PSR sort gate)” value is on record?
**A.** Its value is “high polyreactivity”.

**Q.** With “QVQLVESGGGLVQAGGSLRLSCAASGSTFPLYAMGWYRQAPGKDRELVAAITWSGANTYYADSVKGRFTISRDNAKNTVSLQMNSLKPEDTAVYYCAAGSYAGFAVIGYYYWGQGTQVTVSS” as the sequence, how does the “polyreactivity (PSR sort gate)” value read?
**A.** Its value is “low polyreactivity”.

**Q.** For “QVQLVESGGGLVQAGGSLRLSCAASGSTFPPNAMGWYRQAPGKERELVAVISNGGSNTRYADSVKGRFTISRDIAKNTVYLQMNSLKPEDTAVYYCAADYEYSGYGYWGQGTQVTVSS”, which “polyreactivity (PSR sort gate)” value is on record?
**A.** Its value is “high polyreactivity”.

**Q.** Which “polyreactivity (PSR sort gate)” value does the source give for “QVQLVESGGGLVQAGGSLRLSCAASGSTFPPNAMGWYRQAPGKERELVAVISYSDGSTYYADSVKGRFTISRDNAKNTVYLQMNSLKPEDTAVYYCAAYSGYGGVSMYYWGQGTQVTGSS” here?
**A.** The value was “low polyreactivity”.

**Q.** With “QVQLVESGGGLVQAGGSLRLSCAASGSTFPPNGMGWYRQAPGKERELVAAIRWRGGSTYYADSVKGRFTISRDNAKNTVYLQMNSLKPEDTAVYYCAKYVTYSRPTNSPSGKHVYWGQGTQVTVSS” as the sequence, how does the “polyreactivity (PSR sort gate)” value read?
**A.** The value was “low polyreactivity”.

**Q.** For “QVQLVESGGGLVQAGGSLRLSCAASGSTFPPYAMGRYRQAPGKERELVAAIDWSDGTTYYADSVKGRFTISRDYAKNTVYLQMNSLKPEDTAVYYCAGSLSQSEYDYWGQGTQVTVSS”, which “polyreactivity (PSR sort gate)” value is on record?
**A.** The value was “low polyreactivity”.

**Q.** With “QVQLVESGGGLVQAGGSLRLSCAASGSTFPPYAMGWYRQAPGKEREFVARISWTGGSTYYADSVKGRFTISRDNAKNTVYLQMNCLKPEDTAVYYCAAKSYWGQGTQVTVSS” as the sequence, how does the “polyreactivity (PSR sort gate)” value read?
**A.** Its value is “high polyreactivity”.

**Q.** For “QVQLVESGGGLVQAGGSLRLSCAASGSTFPPYAMGWYRQAPGKERELVADITRRGASTYYADSVKGRFTISRDNAKNTVYLQMNSLKPEDTAVYYCNAGRSRRYRIGRYYYWGQGTQVTVSS”, which “polyreactivity (PSR sort gate)” value is on record?
**A.** The value was “high polyreactivity”.

**Q.** For “QVQLVESGGGLVQAGGSLRLSCAASGSTFPQNVMGWYRQAPGKERELVAAITRSAGSTYYADSVKGRFTISRDNAKNTVYLQMNSLKPEDTAVYYCNTGRQRGDGWGQGTQVTVSS”, which “polyreactivity (PSR sort gate)” value is on record?
**A.** Its value is “high polyreactivity”.

**Q.** Which “polyreactivity (PSR sort gate)” value does the source give for “QVQLVESGGGLVQAGGSLRLSCAASGSTFPQYAMGWYRQAPGKERELVAAISFSGGSTYYADSVKGRFTISRDNAKNTVYLQMNSLKPEDTAVYYCAAELGLAQYYYWGQGTQVTVSS” here?
**A.** Its value is “low polyreactivity”.

**Q.** Which “polyreactivity (PSR sort gate)” value does the source give for “QVQLVESGGGLVQAGGSLRLSCAASGSTFPRNAMVWYIQAPGKERELVAAISRRGGSTYYADSVKGLFTISRDNAKNTVYLQMNSLKPEDTAVYYCAAATRYAIYGRYSRYDYWGQGTQVTVSS” here?
**A.** Its value is “high polyreactivity”.

**Q.** Which “polyreactivity (PSR sort gate)” value does the source give for “QVQLVESGGGLVQAGGSLRLSCAASGSTFPRYAMGWYRQAPGKERELVAAMSSSGGRTYYADSVKGRFTISRDNAKNTVYLQMNSLKPEDTAVYYCAARAFKTIIYDYWGQGTQVTVSS” here?
**A.** The value was “high polyreactivity”.

**Q.** With “QVQLVESGGGLVQAGGSLRLSCAASGSTFPSNAMGWYRQAPGKERELVAAIRGRGGSTYYADSVKGRFTISRDNAKNTVYLQMNSLKPEDTAVYYCAKKVRSYVRWEYDYWGQGTQVTVSS” as the sequence, how does the “polyreactivity (PSR sort gate)” value read?
**A.** The value was “low polyreactivity”.

**Q.** For “QVQLVESGGGLVQAGGSLRLSCAASGSTFPSNVMGWYRQAPGKERELVAAITWSGGRTYYADSVKGRFTISRDNAKNTVYLQMNSLKPEDTAVYYCAVRSSYVRYDYWGKGTQVTVSS”, which “polyreactivity (PSR sort gate)” value is on record?
**A.** Its value is “high polyreactivity”.

**Q.** For “QVQLVESGGGLVQAGGSLRLSCAASGSTFPSYAMGWYRPAPGKERELVAAINSGGGTNYADSVKGRFTISRDNAKNTVYLQMNSLKPEDTAVYYCAKSRYEYTKTEGGYWGQGTQVTVSS”, which “polyreactivity (PSR sort gate)” value is on record?
**A.** The value was “low polyreactivity”.
